Reference: patent US20130018176A1, “METHODS OF PRODUCING HYBRIDOMAS AND MONOCLONAL ANTIBODIES AND ANTIBODIES PRODUCED THEREBY” (AMGEN INC., priority 2007, published 2013)
Read-outs that look alike come from different tables or passages of the source.

Experiments:
[1] = Biological activity of hepcidin variants; conditions: chemically synthesized hepcidin variants
Source text: A number of hepcidin variants were chemically synthesized according to the general procedure described in Example 4. A variant of hepcidin lacking the five amino acids at the N-terminus, designated “hepcidin 20” or “hepc20,” was synthesized. A linear hepcidin variant in which all eight cysteine residues were replaced with 2-aminobutyric acid, thus completely abolishing the ability to form disulfide bonds, was also synthesized. A C1-C8, C3-C6 hepcidin variant, in which cysteines 2, 4, 5 and 7 were substituted with 2-aminobutyric acid to allow formation of only two disulfide bonds (C1-C8 and C3-C6), was also synthesized.
Similar results were produced using hepcidin containing its native cysteine residues, when the molecule was in a fully-reduced state (i.e., no disulfide connectivity). This reduced material was not stable, however, and regained biological activity over time.

[2] = biological target: T1, mature human hepcidin (SEQ ID NO: 9) (Homo sapiens, UniProt P81172); test: Epitope specificity: antibody binding to immobilized hepcidin surface after pre-complex with hepcidin variants (BIAcore); conditions: interpretation of Table 6
T1 construct: made in house; host or cells: recombinant
T1 sequence (P81172 60-84): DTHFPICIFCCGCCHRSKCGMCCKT
Procedure: (§1) The epitope specificity of anti-human hepcidin antibodies was evaluated by assessing ability of the antibodies to bind to mature human hepcidin (SEQ ID NO: 9) after pre-complex formation with different hepcidin variants.
(§2) Recombinant hepcidin was immobilized on a CM5 chip according to manufacturer's instructions at a flow rate 10 μL/min of running buffer (DPBS: Dulbecco's Phosphate Buffer Saline1X, GIBCO 14190, with 0.005% BIAcore surfactant P-20). The carboxylated matrix of the sensor chip was first activated with a 100 μL injection of 1:1 mixture of EDC (75 mg/mL N-ethyl-N-(dimethylamine-propyl)carbodiimide in water, from Biacore) and NHS (11.5 mg/mL N-hydroxysuccinimide in water, from Biacore). 180 μL of rhHepc (˜20 μg/ml in 10 mM Na-acetate pH4.0) was injected to immobilize onto the sensor chip at 30 μL/min. The excess reactive groups of the sensor chip were deactivated with an injection of 100 μL of ethanolamine (1.0M, from Biacore).
(§3) Forms of hepcidin used for the pre-complex were: correctly folded hepcidin as a positive control, the C1-C8, C3-C6 hepcidin variant (see Example 9), hepcidin 20 (N-terminally truncated, see Example 9) and linear hepcidin (Example 9). 1 nM solutions of antibody (2.41, 2.7, 43, and R9) were preincubated with 10 nM of each antigen at room temperature for several hours before run through the immobilized hepcidin surface. The binding signal obtained was proportional to the concentration of free antibody in solution at equilibrium.
(§4) Some antibodies require the five amino acids at the N-terminus of the molecule (e.g. Ab43 and to a lesser extent, R9).

[3] = system: mature human hepcidin (SEQ ID NO: 9); test: as above; conditions: interpretation of Table 6
Procedure: as §1, §2, §3, §4

human hepcidin [4] = biological target: T2, human hepcidin (Homo sapiens, UniProt P81172); test: Combination of anti-hepcidin antibody and darbepoetin alfa in viral hepcidin over-expression model; assay type: in vivo; conditions: AAV-human hepcidin mice
Procedure: Male C57BL/6 mice were injected with AAV (5×10^12 particles/mouse, I.V.) containing genes coding for either human hepcidin or GFP as an expression control (n=5 per group). After allowing two weeks to establish constitutive protein expression, mice were bled to determine baseline hemoglobin (Hb) levels, then treated with Ab 2.7 (1 mg/mouse) or isotype control at various dose frequencies. On the day after the first dose, they were treated with darbepoietin alfa ([…], subcutaneous). A schematic of the dosing schedule appears in FIG. 15A.
Neutralization of hepcidin restores responsiveness to darbepoetin alfa. […] (See FIG. 15D.) Antibody dose and proximity of antibody dose to darbepoietin alfa treatment affected overall Hb response to anti-hepcidin antibody treatment, as shown in FIG. 15E (results varying from the control where p<0.01 by ANOVA with Dunnett's post-hoc test are noted with double asterisks).

human hepcidin [5] = biological target: T3, human hepcidin (Homo sapiens, UniProt P81172); test: Neutralization of injected human hepcidin in mice (hypoferremic response); assay type: in vivo; conditions: female C57BL/6 mice; for protection from the hypoferremic response (serum iron): serum iron two hours later
T3 construct: The pro-region of the protein was enzymatically cleaved by incubation with Kex protease; made in house; host or cells: E. coli
T3 sequence (P81172 60-84 limits assumed): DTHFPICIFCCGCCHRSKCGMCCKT
Procedure: Activity of anti-human hepcidin antibodies was evaluated in vivo in mice that were administered human hepcidin in an amount sufficient to generate a hypoferremic response. On day 0, female C57BL/6 mice were injected subcutaneously with a murine monoclonal antibody (Ab2.7) directed against human hepcidin. Control mice received murine IgG1 as an isotypic control. At day 3, the mice received a single intraperitoneal injection of 25 μg E. coli-derived recombinant human Hepcidin (rhHepc). Serum iron levels were analyzed two hours later. […] Statistics represent ANOVA with a Dunnett's post-hoc test comparing all groups against the saline control.

synthetic human hepcidin = biological target: T4, synthetic human hepcidin (Homo sapiens, UniProt P81172); test: Iron-responsive beta-lactamase assay in 293/Fpn/BLA cells; assay type: cell-based; conditions: 50 ng/mL synthetic human hepcidin, 2.5 ug/mL ferric citrate, read-out: EC50, decreased intracellular concentration of iron
T4 construct: made in house; host or cells: chemical synthesis (Fmoc solid phase), oxidatively folded
T4 sequence (P81172 60-84 limits assumed): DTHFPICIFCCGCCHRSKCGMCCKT
Procedure: The effect of anti-human hepcidin antibodies on this hepcidin-mediated iron sequestration was evaluated in vitro. […] These 293/Fpn/BLA cells, taken from a 70-80% confluent culture, were plated at 2.8×10^5 cells/mL in DMEM (Invitrogen Cat#11965) 5% FBS (Invitrogen Cat#10099-141) PSQ (Invitrogen Cat#10378-016), 90 uL/well (25,000 cells/well) in BioCoat Poly-D Lysine coated plates (Becton-Dickinson Cat#35-6640) and incubated at 37C with 5% CO2. At the end of the same day, a solution of assay medium (DMEM 5% FBS PSQ) with 100 ug/mL doxycycline was made, 10 uL/well of it added to the plate, and the plate incubated overnight or for at least 20 hours. […] Mixtures were added at 100 uL/well and incubated overnight at 37C, 5% CO2 in a cell culture incubator. Plates were then removed from the incubator and equilibrated to room temperature for 10 minutes before adding 20 uL/well of the prepared Invitrogen GeneBlazer CCF4 A/M development reagent (Invitrogen Kit# K1085) and incubating for 90 minutes in the dark. Development reagent was also added to 16 wells of a control assay plate without cells containing 100 uL assay medium (DMEM 5% FBS PSQ) and incubated for the same time. Blue & Green fluorescence signals were then read on an Envision Multilabel Reader (Perkin-Elmer Inc.) by exciting at 409 nm and reading emissions at 447 nm (blue) and 520 nm (green).

human hepcidin [6] = biological target: T2, human hepcidin; test: Antibody neutralization of AAV-delivered human hepcidin in mice; assay type: in vivo; conditions: 1 mg/mouse
Procedure: AAV-mediated human hepcidin expression in mice produces a microcytic, hypochromic anemia consistent with iron deprivation. The activity of anti-human hepcidin antibodies was evaluated in vivo in these mice overexpressing human hepcidin. Male C57B1/6 mice were injected with AAV (1.5×10^12 particles/mouse, I.V.) containing expression cassettes for either human hepcidin or beta-galactosidase (β-gal) as a negative control. The mice were left for two weeks to allow constitutive production of huHepc before being treated with 1 mg/mouse of Ab 2.7 or isotype control (muIgG1) at various dosing frequencies (1×, 2× and 4× per week) as shown in FIG. 12A. Blood was drawn on the fifth day for serum iron levels and determination of early red blood cell (reticulocyte) characteristics (reticulocyte count, reticulocyte hemoglobin content (CHr), and reticulocyte mean cell volume (Retic. MCV))
Statistical comparisons to β-gal injected animals with isotype control treatment were determined to look for restoration of normal red cell characteristics (ANOVA with Dunnett's post-hoc test).

[7] = biological target: T5, E. coli-derived human hepcidin (Homo sapiens, UniProt P81172); test: Biacore concurrent binding to hepcidin captured on antibody 1S1 surface (sandwich pairing); conditions: 20 nM hepcidin on 1S1 surface, then 50 nM antibody
T5 construct: The pro-region of the protein was enzymatically cleaved by incubation with Kex protease; made in house; host or cells: E. coli
T5 sequence (P81172 60-84 limits assumed): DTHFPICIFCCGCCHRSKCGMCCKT
Procedure: Using Biacore analysis, a surface coated with antibody 1S1 was tested for the concurrent binding of hepcidin and another antibody (FIG. 28). Immobilization of anti-Hepc antibody 1S1 to the sensor chip surface was performed according to manufacturer's instructions using a continuous flow of 0.005% P-20/PBS buffer. Briefly, carboxyl groups on the sensor chip surfaces were activated by injecting 60 μL of a mixture containing 0.2 M N-ethyl-N′-(dimethylaminopropyl)carbodiimide (EDC) and 0.05 M N-hydroxysuccinimide (NHS). This was followed by injecting 1S1 diluted in 10 mM acetate, pH 4.0 at concentrations between 20 μg/mL. Excess reactive groups on the surfaces were deactivated by injecting 60 μL of 1 M ethanolamine. Final immobilized levels were 5,000-6,000 resonance units (RU) for the Ab 1S1 surface. A blank, mock-coupled reference surface was also prepared on the sensor chip. 20 nM E. coli-derived human hepcidin was injected over and bound to the 1S1 antibody surface. Then 50 nM antibody 2.7, 23F11, 26F11, and 1S1 were injected over the hepcidin/1S1 surface. After the antibody injection, the surfaces were regenerated by injecting 30 μL 10 mM HCl pH 2.0.

human hepcidin [8] = biological target: T2, human hepcidin; conditions: in vivo

hepc20: variant of hepcidin lacking the five amino acids at the N-terminus (SEQ ID NO: 96) (ICIFCCGCCHRSKCGMCCKT)
biological activity [1]: severely diminished biological activity

B1: Antibody 2.7: murine human hepcidin-specific monoclonal antibody raised against KLH-conjugated hepcidin; CDRs SEQ ID NOs: 28-33 (antibody, V domains shown)
VH: QIQLVQSGPELKKPGETVKISCKASGYTFTTYGMSWVKQAPGKGLKWMGWINTYSGVPTYADDFKGRFAFSLETSASTAYLQINNLKNEDTATYFCGRDHYYGEVAYWGQGTLVTVSA
VL: DIVLTQSPASLAVSLGQRATISCRASESVDSYGNSFMHWYQQKPGQPPKLLIYRASNLESGIPARFSGSGSRTDFTLTINPVEADDVATYYCHQSNEEYTFGGGTKLEIK
Binding to Solution Epitopes, Folded Hepcidin [2]: ++++ (0% antibody binding to the hepcidin surface and therefore 100% inhibition by hepcidin in solution) | Binding to Solution Epitopes, C1-C8 C3-C6 [3]: ++++ (0% antibody binding to the hepcidin surface and therefore 100% inhibition by hepcidin in solution) | Binding to Solution Epitopes, Linear Hepcidin [3]: − (100% antibody binding to the hepcidin surface and therefore no inhibition by hepcidin in solution) | response to darbepoietin alfa (increase in Hb levels) (human hepcidin [4]; antibody 1 mg/mouse Monday-Wednesday-Friday dosing plus darbepoietin alfa): partial response | response to darbepoietin alfa (Hb levels) (human hepcidin [4]; antibody 1 mg/mouse daily (Monday through Friday) plus darbepoietin alfa): maximal response | Hb levels (human hepcidin [4]; antibody Monday-Wednesday-Friday dosing without darbepoietin alfa): no rise in Hb levels | response to darbepoietin alfa (Hb levels) (human hepcidin [4]; two and three doses of antibody plus darbepoietin alfa): partial response | hypoferremia (serum iron) (human hepcidin [5]; 0.25 mg antibody s.c. day 0, 25 μg rhHepc i.p. day 3): reduction in hypoferremia | protection from the hypoferremic response (serum iron) (human hepcidin [5]; 0.5 mg antibody s.c. day 0, 25 μg rhHepc i.p. day 3): statistically significant protection from the hypoferremic response | protection from the hypoferremic response (serum iron) (human hepcidin [5]; 1 mg antibody s.c. day 0, 25 μg rhHepc i.p. day 3): statistically significant protection from the hypoferremic response | neutralization of hypoferremic response (human hepcidin [5]; lower doses (0.25 and 0.1 mg) of antibody): non-neutralizing doses | EC50 (synthetic human hepcidin): 17 nM | Serum iron levels (human hepcidin [6]; AAV-human hepcidin male C57B1/6 mice, 4× per week): restored to normal | reticulocyte mean cell volume (Retic. MCV) (human hepcidin [6]; AAV-human hepcidin mice, 1× dose): microcytosis is still present | reticulocyte hemoglobin content (CHr) (human hepcidin [6]; AAV-human hepcidin mice, 1× dosing): hypochromicity is still seen | reticulocyte mean cell volume (Retic. MCV) (human hepcidin [6]; AAV-human hepcidin mice, 2× dose): restores normal volume | reticulocyte hemoglobin content (CHr) (human hepcidin [6]; AAV-human hepcidin mice, 2× dosing): normal | reticulocyte mean cell volume (Retic. MCV) (human hepcidin [6]; AAV-human hepcidin mice, 4× dose): restores normal volume | reticulocyte hemoglobin content (CHr) (human hepcidin [6]; AAV-human hepcidin mice, 4× dosing): normal | reticulocyte production (reticulocyte count) (human hepcidin [6]; AAV-human hepcidin mice, all dosing frequencies (1×, 2×, 4× per week)): increased reticulocyte production | ability to bind hepcidin concurrently with 1S1 (sandwich pair) [7]: not able to form a sandwich pair with 1S1 | response to darbepoietin alfa (Hb levels) (human hepcidin [8]): did not respond | responsiveness to darbepoietin alfa (hemoglobin levels) (human hepcidin [8]): restored responsiveness
